Measurements published in paper PMC7994000 (Biochimica et biophysica acta. Proteins and proteomics, 2020).

Columns and labels:
Full-length human IKK2 = biological target: T1, Full-length human IKK2 (human, UniProt O14920 1-756); assay: SEC-MALS
T1 sequence (looked up): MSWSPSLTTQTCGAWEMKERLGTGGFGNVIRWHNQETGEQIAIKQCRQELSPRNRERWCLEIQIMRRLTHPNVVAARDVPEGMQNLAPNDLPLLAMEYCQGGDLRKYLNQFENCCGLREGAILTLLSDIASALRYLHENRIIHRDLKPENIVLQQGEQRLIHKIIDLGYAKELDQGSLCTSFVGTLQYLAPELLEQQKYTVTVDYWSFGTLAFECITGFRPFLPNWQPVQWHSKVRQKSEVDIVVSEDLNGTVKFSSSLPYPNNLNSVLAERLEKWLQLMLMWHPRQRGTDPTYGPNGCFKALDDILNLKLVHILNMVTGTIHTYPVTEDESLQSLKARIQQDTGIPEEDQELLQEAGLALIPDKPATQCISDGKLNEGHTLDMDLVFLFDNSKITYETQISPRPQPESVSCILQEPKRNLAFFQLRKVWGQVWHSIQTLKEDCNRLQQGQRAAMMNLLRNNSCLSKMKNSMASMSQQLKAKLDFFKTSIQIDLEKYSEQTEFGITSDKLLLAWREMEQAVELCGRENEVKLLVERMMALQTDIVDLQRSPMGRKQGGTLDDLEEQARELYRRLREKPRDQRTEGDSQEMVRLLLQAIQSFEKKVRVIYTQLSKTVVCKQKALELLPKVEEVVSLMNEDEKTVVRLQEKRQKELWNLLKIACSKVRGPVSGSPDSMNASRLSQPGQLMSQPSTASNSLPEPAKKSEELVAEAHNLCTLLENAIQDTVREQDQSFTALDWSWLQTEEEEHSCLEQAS

SEC-MALS = biological target: the molecule itself; assay: SEC-MALS

B1: NEMO^1–210 (domain or fragment, human, UniProt Q9Y6K9 1-210, looked up)
chain: MNRHLWKSQLCEMVQPSGGPAADQDVLGEESPLGKPAMLHLPSEQGAPETLQRCLEENQELRDAIRQSNQILRERCEELLHFQASQREEKEFLMCKFQEARKLVERLGLEKLDLKRQKEQALREVEHLKRCQQQMAEDKASVKAQVTSLLGELQESQSRLEAATKECQALEGRARAASEQARQLESEREALQQQHSVQVDQLRMQGQSVE
B1: binds (Full-length human IKK2); binds (SEC-MALS).

B2: NEMO^1–130 (domain or fragment, human, UniProt Q9Y6K9 1-130, looked up)
chain: MNRHLWKSQLCEMVQPSGGPAADQDVLGEESPLGKPAMLHLPSEQGAPETLQRCLEENQELRDAIRQSNQILRERCEELLHFQASQREEKEFLMCKFQEARKLVERLGLEKLDLKRQKEQALREVEHLKR
For B2, the binding result (Full-length human IKK2) was “binds” and the “stoichiometry N” value (SEC-MALS) was 2.

B3: NEMO^1–280 (domain or fragment, human, UniProt Q9Y6K9 1-280, looked up)
chain: MNRHLWKSQLCEMVQPSGGPAADQDVLGEESPLGKPAMLHLPSEQGAPETLQRCLEENQELRDAIRQSNQILRERCEELLHFQASQREEKEFLMCKFQEARKLVERLGLEKLDLKRQKEQALREVEHLKRCQQQMAEDKASVKAQVTSLLGELQESQSRLEAATKECQALEGRARAASEQARQLESEREALQQQHSVQVDQLRMQGQSVEAALRMERQAASEEKRKLAQLQVAYHQLFQEYDNHIKSSVVGSERKRGMQLEDLKQQLQQAEEALVAKQEV
B3: binds (Full-length human IKK2); binds (SEC-MALS).

B4: NEMO^111–250 (domain or fragment, human, UniProt Q9Y6K9 111-250, looked up)
chain: KLDLKRQKEQALREVEHLKRCQQQMAEDKASVKAQVTSLLGELQESQSRLEAATKECQALEGRARAASEQARQLESEREALQQQHSVQVDQLRMQGQSVEAALRMERQAASEEKRKLAQLQVAYHQLFQEYDNHIKSSVV
With B4 the “stoichiometry N” value (SEC-MALS) was 2.

B5: NEMO^1–250 (domain or fragment, human, UniProt Q9Y6K9 1-250, looked up)
chain: MNRHLWKSQLCEMVQPSGGPAADQDVLGEESPLGKPAMLHLPSEQGAPETLQRCLEENQELRDAIRQSNQILRERCEELLHFQASQREEKEFLMCKFQEARKLVERLGLEKLDLKRQKEQALREVEHLKRCQQQMAEDKASVKAQVTSLLGELQESQSRLEAATKECQALEGRARAASEQARQLESEREALQQQHSVQVDQLRMQGQSVEAALRMERQAASEEKRKLAQLQVAYHQLFQEYDNHIKSSVV
With B5 the binding result (Full-length human IKK2) was “binds” and the “stoichiometry N” value (SEC-MALS) was 2.

B6: NEMO^250–365 (domain or fragment, human, UniProt Q9Y6K9 250-365, looked up)
chain: VGSERKRGMQLEDLKQQLQQAEEALVAKQEVIDKLKEEAEQHKIVMETVPVLKAQADIYKADFQAERQAREKLAEKKELLQEQLEQLQREYSKLKASCQESARIEDMRKRHVEVSQ
B6 was tested, and the “stoichiometry N” value (SEC-MALS) was 2.

B7: NEMO^1–110 (domain or fragment, human, UniProt Q9Y6K9 1-110, looked up)
chain: MNRHLWKSQLCEMVQPSGGPAADQDVLGEESPLGKPAMLHLPSEQGAPETLQRCLEENQELRDAIRQSNQILRERCEELLHFQASQREEKEFLMCKFQEARKLVERLGLE
With B7 the “stoichiometry N” value (SEC-MALS) was 2.
